# B1: SV40 large T-Antigen helicase, residues 131-627 (T-Ag^131–627) (domain or fragment)
# chain: KVEDPKDFPSELLSFLSHAVFSNRTLACFAIYTTKEKAALLYKKIMEKYSVTFISRHNSYNHNILFFLTPHRHRVSAINNYAQKLCTFSFLICKGVNKEYLMYSALTRDPFSVIEESLPGGLKEHDFNPEEAEETKQVSWKLVTEYAMETKCDDVLLLLGMYLEFQYSFEMCLKCIKKEQPSHYKYHEKHYANAAIFADSKNQKTICQQAVDTVLAKKRVDSLQLTREQMLTNRFNDLLDRMDIMFGSTGSADIEEWMAGVAWLHCLLPKMDSVVYDFLKCMVYNIPKKRYWLFKGPIDSGKTTLAAALLELCGGKALNVNLPLDRLNFELGVAIDQFLVVFEDVKGTGGESRDLPSGQGINNLDNLRDYLDGSVKVNLEKKHLNKRTQIFPPGIVTMNEYSVPKTLQARFVKQIDFRPKDYLKHCLERSEFLLEKRIIQSGIALLLMLIWYRPVAEFAQSIQSRIVEWKERLDKEFSLSVYQKMKFNVAMGIGVLD
# notes: Simian Virus 40 large T-Antigen, residues 131-627; lacks the N-terminal DnaJ-homology domain and the extreme C-terminal host-range determination region; holds OBD, ZBD and AAA+ domains; also called J-domain truncated T-Ag; source: expressed in E. coli (details in the SI Appendix)
# Biological target: the molecule itself
# Test: cryo-EM structure; T-Ag^131–627 incubated with AMP-PNP in the absence of DNA (apo form); 3D map at 5.6 Å, rigid-body docking of crystal structures of smaller fragments
protein,measurement,value
B1,stoichiometry N,6
